Reference: the supplement of paper PMC9732359
± gives the uncertainty stated by the source.

Test: protein stability index of a GFP-peptide fusion (yeast GPS) (PSI 1-4); higher = more stable; sorted into four equal gates, so the index is relative within each strain
Method in brief: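 Tiled 17-residue yeast protein peptides were fused downstream of GFP in a plasmid that also expresses Cherry, and the pooled library was carried in yeast. Mid-log cultures in leucine-free medium were sorted into four equal gates by GFP/Cherry fluorescence ratio, and plasmids from each gate were PCR-amplified and Illumina-sequenced, with reads assigned to strains by barcodes. The protein stability index for each peptide was each gate's read frequency times its gate number, summed.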

## SCTKCPQIVVPDAQNEL [DIS3]
doa10∆
  protein stability index: 2.17 ± 0.05
pdr5∆
  protein stability index: 2.42 ± 0.04
san1∆
  protein stability index: 2.48 ± 0.057
ubr1∆
  protein stability index: 2.34 ± 0.059

## ASISLAIGYPTLPSVGH [RPP0]
doa10∆
  protein stability index: 2.66 ± 0.075
pdr5∆
  protein stability index: 2.73 ± 0.059
san1∆
  protein stability index: 2.86 ± 0.11
ubr1∆
  protein stability index: 2.62 ± 0.049

## AELLVLKILKQVMEEKL [PUP2]
doa10∆
  protein stability index: 2.73 ± 0.16
pdr5∆
  protein stability index: 2.75 ± 0.087
san1∆
  protein stability index: 2.69 ± 0.24
ubr1∆
  protein stability index: 2.56 ± 0.24

## DPPFRIEEQGWGGFPLD [TAF14]
doa10∆
  protein stability index: 3.32 ± 0.055
pdr5∆
  protein stability index: 3.33 ± 0.052
san1∆
  protein stability index: 3.44 ± 0.048
ubr1∆
  protein stability index: 3.34 ± 0.047

## DIYKSHLDNSKSVFSSA [RPN1]
doa10∆
  protein stability index: 2.69 ± 0.056
pdr5∆
  protein stability index: 2.77 ± 0.041
san1∆
  protein stability index: 2.67 ± 0.051
ubr1∆
  protein stability index: 2.66 ± 0.063

## KYVLITGAGKGSIGAEV [FAS2]
doa10∆
  protein stability index: 3.22 ± 0.24
pdr5∆
  protein stability index: 3.27 ± 0.12
san1∆
  protein stability index: 3.63 ± 0.099
ubr1∆
  protein stability index: 3.05 ± 0.093

## LSLNLGDYGSAKCNSLL [POP5]
doa10∆
  protein stability index: 2.47 ± 0.061
pdr5∆
  protein stability index: 2.94 ± 0.077
san1∆
  protein stability index: 2.57 ± 0.081
ubr1∆
  protein stability index: 2.46 ± 0.093

## LEDGDVVLFNRQPSLHR [RPO31]
doa10∆
  protein stability index: 2.42 ± 0.072
pdr5∆
  protein stability index: 2.67 ± 0.062
san1∆
  protein stability index: 2.47 ± 0.072
ubr1∆
  protein stability index: 2.08 ± 0.051

## RVNKNAPAVELHGNAKK [FAS2]
doa10∆
  protein stability index: 2.74 ± 0.071
pdr5∆
  protein stability index: 3.14 ± 0.07
san1∆
  protein stability index: 3.2 ± 0.18
ubr1∆
  protein stability index: 2.93 ± 0.058

## TGDVLLIQDLLHRLTPK [RPN1]
doa10∆
  protein stability index: 3.12 ± 0.07
pdr5∆
  protein stability index: 3.03 ± 0.061
san1∆
  protein stability index: 3.01 ± 0.062
ubr1∆
  protein stability index: 2.8 ± 0.059

## GAPGANARMPGMPNMPG [SRP54]
doa10∆
  protein stability index: 3.15 ± 0.083
pdr5∆
  protein stability index: 3.2 ± 0.28
san1∆
  protein stability index: 2.92 ± 0.12
ubr1∆
  protein stability index: 2.9 ± 0.11

## QYDFKAVLEENDENDDE [RPN14]
doa10∆
  protein stability index: 3.04 ± 0.11
pdr5∆
  protein stability index: 3.24 ± 0.075
san1∆
  protein stability index: 3.05 ± 0.076
ubr1∆
  protein stability index: 2.89 ± 0.055

## LAKLVSTIDANFADKYD [RPL8A]
doa10∆
  protein stability index: 2.41 ± 0.14
pdr5∆
  protein stability index: 2.8 ± 0.14
san1∆
  protein stability index: 2.8 ± 0.12
ubr1∆
  protein stability index: 1.89 ± 0.069

## IVGLATLIVNTDVEKSD [SRP21]
ubr1∆
  protein stability index: 3.69 ± 0.26

## GCLSVLYQSKGRYMEAL [SRP68]
doa10∆
  protein stability index: 2.83 ± 0.13
pdr5∆
  protein stability index: 3.04 ± 0.18
san1∆
  protein stability index: 2.76 ± 0.21

## KYFTESDIPVSENVFEG [SSN3]
doa10∆
  protein stability index: 3.06 ± 0.11
pdr5∆
  protein stability index: 3.25 ± 0.098
san1∆
  protein stability index: 3.1 ± 0.094
ubr1∆
  protein stability index: 3.06 ± 0.073

## FCRDCNNMLYPREDKEN [RPB9]
doa10∆
  protein stability index: 3.11 ± 0.083
pdr5∆
  protein stability index: 3.11 ± 0.076
san1∆
  protein stability index: 2.9 ± 0.064
ubr1∆
  protein stability index: 3.08 ± 0.061

## LLRFNGVERLIPVGDNT [PRE4]
doa10∆
  protein stability index: 1.58 ± 0.068
pdr5∆
  protein stability index: 1.73 ± 0.07
san1∆
  protein stability index: 1.53 ± 0.13
ubr1∆
  protein stability index: 1.86 ± 0.093

## QPSSSRYNGGNDNIGAN [SMB1]
doa10∆
  protein stability index: 3.2 ± 0.091
pdr5∆
  protein stability index: 3.49 ± 0.08
san1∆
  protein stability index: 3.23 ± 0.049
ubr1∆
  protein stability index: 3.37 ± 0.075

## VPNILSLDMNSMNKELI [NUT1]
doa10∆
  protein stability index: 2.14 ± 0.075
pdr5∆
  protein stability index: 1.96 ± 0.084
san1∆
  protein stability index: 1.46 ± 0.27
ubr1∆
  protein stability index: 1.91 ± 0.075

## SSSGNTWSLILNECLKT [YML031W/NDC1]
doa10∆
  protein stability index: 1.85 ± 0.066
pdr5∆
  protein stability index: 1.73 ± 0.084
san1∆
  protein stability index: 1.48 ± 0.13
ubr1∆
  protein stability index: 1.52 ± 0.061

## KIKLLTQATSEDGTSAS [RPC19]
doa10∆
  protein stability index: 2.61 ± 0.065
pdr5∆
  protein stability index: 2.85 ± 0.079
san1∆
  protein stability index: 2.89 ± 0.062
ubr1∆
  protein stability index: 3.11 ± 0.078

## PINGNEAESQWYIEKVI [CSI1]
doa10∆
  protein stability index: 2.47 ± 0.081
pdr5∆
  protein stability index: 2.88 ± 0.078
san1∆
  protein stability index: 3.09 ± 0.1
ubr1∆
  protein stability index: 2.93 ± 0.18

## RFQDPYVAIVVDPLKSL [RRI1]
pdr5∆
  protein stability index: 2.79 ± 0.13
san1∆
  protein stability index: 2.26 ± 0.2
ubr1∆
  protein stability index: 2.69 ± 0.13

## VTRKQEDARRNPNPSSQ [RPC37]
doa10∆
  protein stability index: 3.33 ± 0.087
pdr5∆
  protein stability index: 3.44 ± 0.094
san1∆
  protein stability index: 3.19 ± 0.081
ubr1∆
  protein stability index: 3.54 ± 0.061

## LTRNAPLDSKDENFASV [SNF2]
doa10∆
  protein stability index: 3.04 ± 0.08
pdr5∆
  protein stability index: 3.2 ± 0.079
san1∆
  protein stability index: 3.07 ± 0.067
ubr1∆
  protein stability index: 3.1 ± 0.074

## DKLWTLIPEDKRDQYLK [RPL28]
doa10∆
  protein stability index: 3.32 ± 0.19
pdr5∆
  protein stability index: 2.88 ± 0.22
san1∆
  protein stability index: 3.13 ± 0.07
ubr1∆
  protein stability index: 3.18 ± 0.24

## SRLCTPIPVQGEIEIKP [RPN13]
doa10∆
  protein stability index: 2.42 ± 0.078
pdr5∆
  protein stability index: 2.58 ± 0.067
san1∆
  protein stability index: 1.7 ± 0.26
ubr1∆
  protein stability index: 2.66 ± 0.1

## FSKILPAALDGLMKSYK [ESC2]
doa10∆
  protein stability index: 2.71 ± 0.059
pdr5∆
  protein stability index: 2.28 ± 0.069
san1∆
  protein stability index: 2.73 ± 0.051
ubr1∆
  protein stability index: 2.54 ± 0.056

## LSWCPSRFSPEKLAVSA [YGL100W/SEH1]
doa10∆
  protein stability index: 2.48 ± 0.078
pdr5∆
  protein stability index: 2.57 ± 0.11
san1∆
  protein stability index: 2.81 ± 0.14

## LYEIILAANYLNIKPLL [SKP1]
doa10∆
  protein stability index: 1.51 ± 0.046
pdr5∆
  protein stability index: 1.33 ± 0.045
san1∆
  protein stability index: 1.28 ± 0.11
ubr1∆
  protein stability index: 1.46 ± 0.045

## DPKLEKCLNYRNVNWIE [ITC1]
doa10∆
  protein stability index: 2.96 ± 0.069
pdr5∆
  protein stability index: 2.88 ± 0.09
san1∆
  protein stability index: 2.96 ± 0.056
ubr1∆
  protein stability index: 2.95 ± 0.046

## QQTAQTQLEQQRQLLVQ [SNF5]
doa10∆
  protein stability index: 3.12 ± 0.12
pdr5∆
  protein stability index: 3.15 ± 0.14
ubr1∆
  protein stability index: 2.49 ± 0.072

## AKYETSILEHSGIRLIE [FAS2]
doa10∆
  protein stability index: 3.32 ± 0.062
pdr5∆
  protein stability index: 3.3 ± 0.063
san1∆
  protein stability index: 3.09 ± 0.051
ubr1∆
  protein stability index: 3.37 ± 0.052

## RGRNDTLERVHLSYCSN [GRR1]
doa10∆
  protein stability index: 3.01 ± 0.055
pdr5∆
  protein stability index: 3.2 ± 0.068
san1∆
  protein stability index: 2.69 ± 0.1
ubr1∆
  protein stability index: 2.98 ± 0.046

## YALAAKDRFDIDEKSQF [RPN2]
doa10∆
  protein stability index: 1.73 ± 0.09
pdr5∆
  protein stability index: 2.1 ± 0.13
san1∆
  protein stability index: 1.93 ± 0.17
ubr1∆
  protein stability index: 2.66 ± 0.082

## VMSSDDENAPVATNANA [PRE10]
doa10∆
  protein stability index: 3.27 ± 0.18
pdr5∆
  protein stability index: 3.42 ± 0.11
san1∆
  protein stability index: 3.15 ± 0.13
ubr1∆
  protein stability index: 2.5 ± 0.26

## KAYVRLTADYDALDIAN [RPL25]
doa10∆
  protein stability index: 2.94 ± 0.14
pdr5∆
  protein stability index: 3.04 ± 0.15
san1∆
  protein stability index: 3.17 ± 0.094
ubr1∆
  protein stability index: 3.52 ± 0.091

## RSMIEHARTAAVTHNLY [PUP2]
doa10∆
  protein stability index: 2.16 ± 0.13
pdr5∆
  protein stability index: 2.98 ± 0.22
san1∆
  protein stability index: 2.46 ± 0.13
ubr1∆
  protein stability index: 2.67 ± 0.083

## DYISGISVGLYDTTPLL [SKI6]
doa10∆
  protein stability index: 2.42 ± 0.12
pdr5∆
  protein stability index: 2.28 ± 0.1
san1∆
  protein stability index: 1.84 ± 0.084
ubr1∆
  protein stability index: 2.26 ± 0.13

## EDFRIQFKTTIKDTAND [UBP6]
doa10∆
  protein stability index: 2.49 ± 0.067
pdr5∆
  protein stability index: 2.47 ± 0.07
san1∆
  protein stability index: 2.16 ± 0.063
ubr1∆
  protein stability index: 2.43 ± 0.054

## DNWNAPLIMATCGSKGS [RPO31]
doa10∆
  protein stability index: 2.57 ± 0.2
pdr5∆
  protein stability index: 2.4 ± 0.11
ubr1∆
  protein stability index: 2.43 ± 0.075

## WKSPEWIQVFGLRTENV [MED6]
doa10∆
  protein stability index: 2.14 ± 0.084
pdr5∆
  protein stability index: 2.22 ± 0.058
san1∆
  protein stability index: 2 ± 0.13
ubr1∆
  protein stability index: 2.35 ± 0.072

## EDVTPVPSDSTRKKGGR [RPS14A]
doa10∆
  protein stability index: 3.1 ± 0.13
pdr5∆
  protein stability index: 3.24 ± 0.079
san1∆
  protein stability index: 3.41 ± 0.065
ubr1∆
  protein stability index: 3.45 ± 0.075

## EEALNFDISMADLSSSE [SSN2]
doa10∆
  protein stability index: 2.85 ± 0.06
pdr5∆
  protein stability index: 2.95 ± 0.053
san1∆
  protein stability index: 3.05 ± 0.07
ubr1∆
  protein stability index: 2.6 ± 0.049

## GKDCKLQNLQRIIRKKI [RRI2]
doa10∆
  protein stability index: 2.98 ± 0.092
pdr5∆
  protein stability index: 3.51 ± 0.14
san1∆
  protein stability index: 3.14 ± 0.096
ubr1∆
  protein stability index: 3.05 ± 0.13

## VSSSSRHHRKTEKEEDA [ISW2]
doa10∆
  protein stability index: 2.66 ± 0.064
pdr5∆
  protein stability index: 2.81 ± 0.057
san1∆
  protein stability index: 2.05 ± 0.058
ubr1∆
  protein stability index: 2.86 ± 0.054

## NDKQGFPMKQGVLLPTR [RPS6A]
doa10∆
  protein stability index: 2.75 ± 0.098
pdr5∆
  protein stability index: 3.06 ± 0.14
san1∆
  protein stability index: 2.79 ± 0.075
ubr1∆
  protein stability index: 2.57 ± 0.12

## DRIYMLFHFEEDEGEEL [PRP8]
doa10∆
  protein stability index: 1.64 ± 0.065
pdr5∆
  protein stability index: 1.49 ± 0.064
san1∆
  protein stability index: 1.5 ± 0.17
ubr1∆
  protein stability index: 1.93 ± 0.057

## QASGITAGAAANALGGL [SSN3]
doa10∆
  protein stability index: 2.56 ± 0.071
pdr5∆
  protein stability index: 1.91 ± 0.068
san1∆
  protein stability index: 2.13 ± 0.093
ubr1∆
  protein stability index: 2.02 ± 0.058
